{"source": "patent US20030003502A1", "about": "(published 2003)", "target": "T1, PhFc-Cε3/Cε41-222 (human, UniProt P01854 211-427, N-linked carbohydrate attached at N394 (NAG/MAN residues 694-699 in Table 1))", "T1 construct": "Fc fragment of human IgE (Cε3 and Cε4 domains); It is a dimer of two identical chains with an interchain disulfide near residue 329; Produced in Trichoplusia ni (Hi-5) insect cells; also called human IgE-Fc Cε3/Cε4 domains; IgE-Fc", "T1 sequence (P01854 other isoform, or with tags, fused parts or gaps limits assumed)": "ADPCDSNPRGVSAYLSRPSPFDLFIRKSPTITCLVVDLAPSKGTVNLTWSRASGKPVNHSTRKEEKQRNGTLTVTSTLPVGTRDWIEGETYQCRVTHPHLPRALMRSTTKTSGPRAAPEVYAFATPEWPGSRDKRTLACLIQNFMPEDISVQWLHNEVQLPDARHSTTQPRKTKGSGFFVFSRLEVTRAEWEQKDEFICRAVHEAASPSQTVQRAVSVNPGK", "assay": "complex formation and co-crystallization, crystal form I", "description": "The structure was determined by molecular replacement techniques as described in Methods. Manual model building was done with the program O¹⁸ and refinement carried out with CNS¹⁹. Current refinement statistics for the complex are shown in Table 3, with an overall R-free of 29.3% and R-cryst of 27.0% to 3.25 Å.\nHuman IgE-Fc Cε3/Cε4 domains and a carbohydrate mutant of the FcεRIα¹¹ were expressed in insect cells essentially as described for IgE-Fc Cε3/Cε4 in 60/189,403. Complexes of wt-Fc-Cε3/Cε4 and wt-FcεRIα produced only poorly diffracting crystals. Since the receptor is heavily glycosylated (˜33% carbohydrate by weight), and the carbohydrate sites are dispersed on the receptor surface, a subset of these attachment sites was removed to improve the protein crystallization. A previously-described carbohydrate mutant of the receptor¹⁷ lacking three of the seven wild type carbohydrate sites (residues 74, 135, and 140) located on both D1 and D2 in the receptor structure. The triple receptor mutant, FcεRIαΔ4-6 was subcloned into the pvl1392 baculovirus transfer vector and recombinant virus produced. The mutant receptor was active, expressed well and was purified by affinity chromatography similarly to the wt protein. […]"}
{"binder": "PhFcεRIα1-176 (receptor, N-linked carbohydrate (seven native attachment sites; about 33% carbohydrate by weight), also called hFcεRIα1-176 protein; wild type (wt) FcεRIα) VPQKPKVSLNPPWNRIFKGENVTLTCNGNNFFEVSSTKWFHNGSLSEETNSSLNIVNAKFEDSGEYKCQHQQVNESEPVYLEVFSDWLLLQASAEVVMEGQPLFLRCHGWRNWDVYKVIYYKDGEALKYWYENHNISITNATVEDSGTYYCTGKVWQLDYESEPLNITVIKAPREK", "values": [{"measurement": "binding result", "value": "binds"}]}
